Reference: patent US20240182575A1 (Ablynx, published 2024)
Residue numbers refer to the chain shown, from its start.

T1: HuCD80-HuIgG1 (fusion protein of the extracellular part of human CD80 and human Fc gamma 1, R&D Systems Cat … (human, UniProt P33681 35-242))
T1 construct: extracellular domain; bought, produced in NS0 cells; also called CD80-IgG1; CD80-Ig; not shown: human Fc gamma 1
T1 sequence (looked up): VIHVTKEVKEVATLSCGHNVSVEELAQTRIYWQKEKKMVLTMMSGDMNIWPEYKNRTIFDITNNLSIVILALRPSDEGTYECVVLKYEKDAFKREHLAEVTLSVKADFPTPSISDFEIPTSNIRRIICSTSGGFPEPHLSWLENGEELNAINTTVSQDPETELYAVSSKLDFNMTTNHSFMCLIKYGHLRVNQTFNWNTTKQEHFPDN

T2: HuCD86-HuIgG1 (fusion protein of the extracellular part of human CD86 and human Fc gamma 1, R&D Systems Cat … (human, UniProt P42081 24-247))
T2 construct: extracellular domain; bought; also called CD86-IgG1; CD86-Ig; not shown: human Fc gamma 1
T2 sequence (looked up): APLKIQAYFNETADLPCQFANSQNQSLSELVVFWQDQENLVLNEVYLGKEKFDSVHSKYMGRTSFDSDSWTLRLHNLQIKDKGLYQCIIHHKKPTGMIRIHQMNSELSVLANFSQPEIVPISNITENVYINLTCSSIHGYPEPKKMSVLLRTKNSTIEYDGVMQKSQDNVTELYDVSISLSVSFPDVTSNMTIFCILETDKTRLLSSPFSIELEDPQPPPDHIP

B1: 95A6 (VHH)
VHH: EVQLVESGGGLVQAGGSLRLSCALSGRAVSIAATAMGWYRQAPGKQRELVAARWSGGSIQYLDSVKGRFTISRDNAKNTVYLQMNSLTPEDTAVYYCNTLPWRANYSGQGTQVTVSS
notes: Nanobody against B7-H2 (ICOSL)
B2: 102C3 (VHH)
VHH: EVQLVESGGGLVQAGKSLRLSCAASGSIFSIHAMGWFRQAPGKEREFVAAITWSGGITYYEDSVKGRFTISRDNAKNTVYLQMNSLKPEDTAIYYCAADRAESSWYDYWGQGTQVTVSS
notes: Nanobody against PD-1
B3: 102C12 (VHH)
VHH: B2 VHH with K16G, F29A, A50V, E61A, A98G, R100K, A101H, E102Q
notes: Nanobody against PD-1
B4: 102E2 (VHH)
VHH: B2 VHH with K16G, F29S, E61A, V64L, V79G, E102Q
notes: Nanobody against PD-1
B5: 102E8 (VHH)
VHH: B2 VHH with K16G, R19G, H32N, G35A, A50L, T52S, I57S, A101V, E102D, S104N
notes: Nanobody against PD-1
B6: 95F8 (VHH)
VHH: EVQLVESGGGLVQAGGSLRLSCAASGIAFSIDIMDWYRQAPGKERELVATISGGGSTNYADSVKGRFIVSRDNAKNILYLQMNSLKPDDTAVYYCNARRLIYGRTVYWGQGTQVTVSS
notes: as for B1
B7: CD8086PMP1B2 (VHH)
VHH: EVQLVESGGGLVQAGGSLRLSCAASGRSFSSYVMGWFRQAPGKEREFVAAIIGRDIGTYYADSVKGRFTISRDNAKTTVYLQMNALKPEDTAVYYCAADSRSRLSGIRSAYDYWGQGTVTVSS
notes: not shown: C-terminal c-myc tag and His6 tag
B8: 95H8 (VHH)
VHH: EVQLVESGGGLVQTGGSLRLSCAASSSTSTSSIDVMGWYRQSPGKQRELVASISSFGSTYYADSVKGRFIISRDNAKNTVNLQMNNLKLEDTAVHFCNLRRLSPPPLLDYWGQGTQVTVSS
notes: as for B1
B9: 95B11 (VHH)
VHH: EVQLVESGGGLVQPGGSLRLSCAASRSISSFNLLGWYRQAPGKQRELVAHLLSGGSTVYPDSVKGRFTVSRDNTKNTVYLQMNSLKPEDTAVYYCNAIAPALGSSWGQGTQVTVSS
notes: as for B1
B10: 70F9 (VHH)
VHH: EVQLVESGGGLVQAGGSLRLSCAASGRTFSSYVMGWFRQAPGKEREFVAAHSWYADYADSVKGRFSISRDNDKNTVYLQMNSLKPEDTAVYYCAASRSQGRRYANSYESWGQGTQVTVSS
notes: Nanobody against CD28
B11: 70F10 (VHH)
VHH: EVQLVESGGGLVQAGGSLRLSCAASGFTFDDYAIGWFRQAPGKEREGVACVSNSDGSTYYANSVKGRFTISSDNAKNTVYLQMNSLKPEDTAVYYCAADSRCWGWGMLHMRHGDRGQGTQVTVSS
notes: Nanobody against CD28

Assays:
[1] = biological target: T3, rhB7-H2-Fc (fusion protein of the extracellular part of human B7-H2 (ICOSL) and mouse Fc gamma 1, R&D Systems … (human; mouse, UniProt O75144 19-256; P01868 98-324 = IgG part, limits assumed); experiment: competition ELISA, coated B7-H2; blocked ligand ICOS-biotin
T3 construct: extracellular domain;domain: Fc; bought; also called B7-H2 ectodomain

[2] = biological target: T4, rhPD1-Fc (fusion protein of the extracellular part of human PD-1 and mouse Fc gamma 1, R&D Systems Cat … (human; mouse, UniProt Q15116 25-170; P01868 98-324 = IgG part, limits assumed); experiment: competition ELISA, coated PD-1; blocked ligand PD-L2-biotin
T4 construct: extracellular domain;domain: Fc; bought; also called PD-1 ectodomain
Experimental: (§1) In short, 2 μg/ml PD-1 ectodomain (R&D Systems Cat #1086-PD, Minneapolis, US) was immobilized on maxisorp microtiter plates (Nunc, Wiesbaden, Germany) and free binding sites were blocked using 4% Marvel in PBS.

[3] = biological target: T4, rhPD1-Fc (fusion protein of the …); experiment: competition ELISA, coated PD-1; blocked ligand B7-H1-biotin
Experimental: as §1

[4] = biological target: T5, Human IgG1, purified from a human plasma (Sigma-Aldrich Cat #I-5154) (human); experiment: ELISA, periplasmic extract on coated antigen, anti-myc detection
T5 construct: also called HuIgG1
Excerpt: (§2) To this end, 3 independent ELISA assays were set up. In these ELISAs, either HuCD80 or HuCD86 fusion proteins or human IgG1 were coated on ELISA plates which were washed and then blocked using Marvel skimmed milk powder (Premier Brands UK Ltd., Wirral, Merseyside, UK). […] Four aliquots of periplasmic extract of individual clones prepared as described in Example 4 were allowed to bind in all four types of ELISA plates. Binding of Nanobody to immobilized antigen was detected using mouse anti-c-myc tag monoclonal antibody as a secundary, followed by a goat-anti-mouse (human and bovine serum protein pre-absorbed) HRP conjugate for detection (for detailed protocol, see the prior art and prior applications filed by applicant).

[5] = biological target: T1, HuCD80-HuIgG1 (fusion protein of the …); experiment: as above
Excerpt: as §2

[6] = biological target: T2, HuCD86-HuIgG1 (fusion protein of the …); experiment: as above
Excerpt: as §2

[7] = biological target: T1, HuCD80-HuIgG1 (fusion protein of the …); experiment: SPR, Biacore 3000, antigen amine-coupled
Experimental: (§3) Affinity constants (Kd) of individual purified Nanobody clones were determined by surface plasmon resonance on a Biacore 3000 instrument. […] Remaining reactive groups were inactivated using ethanolamine. Nanobody binding was assessed at 1 and 0.1 microM. Each sample was injected for 4 min at a flow rate of 45 μl/min to allow for binding to chip-bound antigen. Next, binding buffer without Nanobody was sent over the chip at the same flow rate to allow for dissociation of bound Nanobody. After 2 min, remaining bound analyte was removed by injecting regeneration solution (50 mM NaOH or Glycine/HCl pH 1.5). Binding curves obtained at different concentrations of Nanobody were used to calculate Kd values.

[8] = biological target: T2, HuCD86-HuIgG1 (fusion protein of the …); experiment: SPR, Biacore 3000, antigen amine-coupled
Experimental: as §3

[9] = biological target: T6, HuCD28-HuIgG1 (fusion protein of the extracellular part of human CD28 and human Fc gamma 1, R&D Systems Cat … (human, UniProt P10747 19-152; P01857 100-330 = IgG part); experiment: competition ELISA, CD28-hFc in solution; blocked ligand coated B7-1-muFc
T6 construct: extracellular domain;domain: Fc; bought; also called CD28-Ig; hCD28-Fc

Row | Binder | IC50 (read off the curve) [1] | IC50 (read off the curve) [2] | IC50 (read off the curve) [3] | also measured
1 | B1 | ~10 nM |  |  | 
2 | B2 |  | ~10 nM | ~10 nM | 
3 | B3 |  | ~70 nM | ~80 nM | 
4 | B4 |  | ~70 nM | ~70 nM | 
5 | B5 |  | ~200 nM | ~200 nM | 
6 | B6 | ~8 nM |  |  | 
7 | B7 |  |  |  | OD [4]: 0.046 OD; OD [5]: 1.99 OD; OD [6]: 0.038 OD; Kd [7]: 0.13 nM; koff [7]: 5.9e-05 s⁻¹; kon [7]: 440000 M⁻¹ s⁻¹; binding result [8]: no binding (tested: 1 and 0.1 microM)
8 | B8 | ~10 nM |  |  | 
9 | B9 | ~10 nM |  |  | 
10 | B10 |  |  |  | IC50 (read off the curve) [9]: ~100 nM
11 | B11 |  |  |  | IC50 (read off the curve) [9]: ~200 nM
